Assay [1] deals with Chicken skeletal muscle α-actin (F-actin, unlabeled) (chicken) (UniProt P68139).
For assay [2], the target named is Chicken skeletal muscle α-actin labeled with DABMI at Cys374 (chicken) (UniProt P68139).
For assay [3], the target named is Chicken skeletal muscle α-actin (F-actin, unlabeled) (chicken) (UniProt P68139). Nature of the assay: co-sedimentation; increasing tropomyosin (0-10 µM) mixed with 5 µM actin in F-buffer (2 mM HEPES, pH 7.6, 40 mM NaCl, 5 mM MgCl2) at 22°C, ultracentrifuged; supernatants and pellets on SDS-PAGE; apparent constants (Kapp).

“Chicken skeletal myosin subfragment 1 (S1) (domain or fragment)”: in assay [1], the Actin–myosin S1 ATPase activity in the presence of TM1b9a/A232C; 0.8 µM S1, 9.2 µM F-actin, 1.2 µM tropomyosin (nmol Pi/mg S1/min) stood at 126; the Actin–myosin S1 ATPase activity in the presence of TM1b9a; 0.8 µM S1, 9.2 µM F-actin, 1.2 µM tropomyosin (nmol Pi/mg S1/min) turned out to be 108; the Actin–myosin S1 ATPase activity in the presence of TM2/S269C; 0.8 µM S1, 9.2 µM F-actin, 1.2 µM tropomyosin (nmol Pi/mg S1/min) was determined as 112; the Actin–myosin S1 ATPase activity in the presence of TM2; 0.8 µM S1, 9.2 µM F-actin, 1.2 µM tropomyosin (nmol Pi/mg S1/min) amounted to 91.7. Further, in assay [1], the Actin–myosin S1 ATPase activity in the presence of TM5a/S232C; 0.8 µM S1, 9.2 µM F-actin, 1.2 µM tropomyosin (nmol Pi/mg S1/min) worked out at 184; the Actin–myosin S1 ATPase activity in the presence of TM5a; 0.8 µM S1, 9.2 µM F-actin, 1.2 µM tropomyosin (nmol Pi/mg S1/min) is 169; the Actin–myosin S1 ATPase activity in the presence of skTM/A269C; 0.8 µM S1, 9.2 µM F-actin, 1.2 µM tropomyosin (nmol Pi/mg S1/min) was 104; the Actin–myosin S1 ATPase activity in the presence of skTM; 0.8 µM S1, 9.2 µM F-actin, 1.2 µM tropomyosin (nmol Pi/mg S1/min) was 103. Further, in assay [2], the S1/actin molar ratio of strongly bound myosin heads required for half-maximal change in FRET between AEDANS-TM1b9a/A232C and DABMI-actin (S1/actin molar ratio) turned out to be 0.14; the S1/actin molar ratio of strongly bound myosin heads required for half-maximal change in FRET between AEDANS-TM2/S269C and DABMI-actin (S1/actin molar ratio) worked out at 0.12; the S1/actin molar ratio of strongly bound myosin heads required for half-maximal change in FRET between AEDANS-TM5a/S232C and DABMI-actin (S1/actin molar ratio) is 0.08; the S1/actin molar ratio of strongly bound myosin heads required for half-maximal change in FRET between AEDANS-skTM/A269C and DABMI-actin (S1/actin molar ratio) worked out at 0.15.

“Ser269Cys-TM2 labeled with AEDANS (natural protein)”: the Ka in assay [3] came to 2.04e+07 M⁻¹.

“Recombinant rat non-muscle α-tropomyosin isoform TM5a (natural protein)”: the Ka in assay [3] worked out at 1.42e+07 M⁻¹.

On to Chimeric rat α-tropomyosin TM1b9a, for which the Ka in assay [3] is 1.27e+07 M⁻¹.

As to Ala232Cys-TM1b9a labeled with AEDANS, in assay [3], the Ka was determined as 1.24e+07 M⁻¹.

Regarding “Ser232Cys-TM5a labeled with AEDANS (natural protein)”, in assay [3], the Ka is 1.49e+07 M⁻¹.

For the substance “Recombinant rat non-muscle α-tropomyosin isoform TM2 (natural protein)”, the Ka in assay [3] stood at 2.25e+07 M⁻¹.

These data come from article PMC3807590.
